The values that follow come from patent publication US20250206828A1, “ANTI-ADENOSINE RECEPTOR (A2aR) ANTIBODIES AND THE USE THEREOF” (Adept Therapeutics Inc., priority 2022, published 2025).

Numbering of substitutions follows the chain as printed. Numbers in names are those of the source.

B1: Hu3F8-H6/Hu3F8-L2 (antibody, human IgG1, V domains shown)
VH: EVQLVQSGAEVKKPGESLRISCKASGFTFTRYWMNWVRQMPGKGLEWIGRIDPSDSETHYNHKFWGHATLSVDKSSSTVYLQWSSLKASDTAMYYCLRSLYGKGDYWGQGTTVTVSS
VL: DVVMTQSPLSLPVTLGQPASISCRSSQSIVHSNGNTYLEWYQQRPGQSPRRLIYKVSNRFSGVPDRFSGSGSGTDFTLKISRVEAEDVGVYYCYQGSHVPLTFGGGTKVEIK
notes: Human IgG1 FES (L234F, L235E, P331S) and human Ig kappa constant domains
B2: Hu3F8-H2/Hu3F8-L4 (antibody, human IgG1, V domains shown)
VH: EVQLVQSGAEVKKPGASVKVSCKASGFTFTRYWMNWVRQAPGQGLEWMGRIDPSDSETHYNHKFWGRVTMTVDTSTSTVYMELSSLRSEDTAVYYCLRSLYGKGDYWGQGTTVTVSS
VL: B1 VL with V2I, L15P, Q17E, Q42L, R44K, R50Q, R51L
notes: as for B1
B3: Hu3F8-H1/Hu3F8-L2 (antibody, human IgG1, V domains shown)
VH: B2 VH with E1Q, V72R
VL: B1 VL
notes: as for B1
B4: Hu3F8-H1/Hu3F8-L4 (antibody, human IgG1, V domains shown)
VH: B2 VH with E1Q, V72R
VL: B1 VL with V2I, L15P, Q17E, Q42L, R44K, R50Q, R51L
notes: as for B1
B5: Hu3F8-H1/Hu3F8-L1 (antibody, human IgG1, V domains shown)
VH: B2 VH with E1Q, V72R
VL: B1 VL with Y41F
notes: as for B1
B6: Hu3F8-H2/Hu3F8-L1 (antibody, human IgG1, V domains shown)
VH: B2 VH
VL: B1 VL with Y41F
notes: as for B1
B7: Hu1B5-H3/Hu1B5-L1: humanized anti-A2aR IgG1 FES antibody; HCVR SEQ ID NO:54, LCVR SEQ ID NO:71 (antibody, V domains shown)
VH: B2 VH with A24T, Y32F, M48I, S54Y, H59Q, G66D, V68A, M70L, T76S, L97G
VL: B1 VL with Y41F, Y94F
modifications: IgG1 FES constant regions
B8: Hu1B5-H6/Hu1B5-L1: humanized anti-A2aR IgG1 FES antibody; HCVR SEQ ID NO:57, LCVR SEQ ID NO:71 (antibody, V domains shown)
VH: B1 VH with A24T, Y32F, S54Y, H59Q, G66D, L97G
VL: B1 VL with Y41F, Y94F
modifications: IgG1 FES constant regions
B9: Hu1B5-H4/Hu1B5-L1: humanized anti-A2aR IgG1 FES antibody; HCVR SEQ ID NO:55, LCVR SEQ ID NO:71 (antibody, V domains shown)
VH: EVQLVQSGAEVKKPGASVKVSCKTSGFTFTRFWMNWVRQAPGQGLEWIGRIDPYDSETQYNHKFWDRATLTVDKSSSTVYMELSSLRSEDTAVYYCGRSLYGKGDYWGQGTTVTVSS
VL: B1 VL with Y41F, Y94F
modifications: IgG1 FES constant regions
B10: Hu1B5-H5/Hu1B5-L1: humanized anti-A2aR IgG1 FES antibody; HCVR SEQ ID NO:56, LCVR SEQ ID NO:71 (antibody, V domains shown)
VH: B9 VH with N61A
VL: B1 VL with Y41F, Y94F
modifications: IgG1 FES constant regions
B11: Hu3F6-H2/Hu3F6-L8 (antibody, human IgG1, V domains shown)
VH: B2 VH with A24T, T28A, R31S, T58A, N61H, Q109H
VL: B1 VL with L15P, Q17E, I29L, S32R, Q42L, R44K, R50Q, R51L
notes: Human IgG1 FES (L234F, L235E, P331S) and human Ig kappa constant domains; also called Hu3F6 VH2/VL8
B12: Hu3F6-H2/Hu3F6-L5 (antibody, human IgG1, V domains shown)
VH: B2 VH with A24T, T28A, R31S, T58A, N61H, Q109H
VL: B1 VL with S7T, P12S, L15P, I29L, S32R, Q42L, R44K, R50Q, R51L
notes: Human IgG1 FES (L234F, L235E, P331S) and human Ig kappa constant domains; also called Hu3F6 VH2/VL5
B13: Hu3F6-H2/Hu3F6-L4 (antibody, human IgG1, V domains shown)
VH: B2 VH with A24T, T28A, R31S, T58A, N61H, Q109H
VL: B1 VL with V2I, S7T, P12S, L15P, I29L, S32R, Q42L, R44K, R50Q, R51L
notes: Human IgG1 FES (L234F, L235E, P331S) and human Ig kappa constant domains; also called Hu3F6 VH2/VL4
B14: Hu3F6-H2/Hu3F6-L3 (antibody, human IgG1, V domains shown)
VH: B2 VH with A24T, T28A, R31S, T58A, N61H, Q109H
VL: B1 VL with I29L, S32R, R51L
notes: Human IgG1 FES (L234F, L235E, P331S) and human Ig kappa constant domains; also called Hu3F6 VH2/VL3
B15: Hu3F6-H3/Hu3F6-L8 (antibody, human IgG1, V domains shown)
VH: B2 VH with A24T, T28A, R31S, M48I, T58A, N61H, V68A, M70L, T76S, Q109H
VL: B1 VL with L15P, Q17E, I29L, S32R, Q42L, R44K, R50Q, R51L
notes: Human IgG1 FES (L234F, L235E, P331S) and human Ig kappa constant domains; also called Hu3F6 VH3/VL8
B16: Hu3F8-H5.1/Hu3F8-L3 (antibody, human IgG1, V domains shown)
VH: B2 VH with M48I, N61A, V68A, M70L, T74K
VL: B1 VL with R51L
notes: Human IgG1 FES (L234F, L235E, P331S) and human Ig kappa constant domains; also called Hu3F8 VH5.1/VL3
B17: Hu3F8-H5.1/Hu3F8-L5 (antibody, human IgG1, V domains shown)
VH: B2 VH with M48I, N61A, V68A, M70L, T74K
VL: B1 VL with L15P, Q17E, Q42L, R44K, R50Q, R51L
notes: Human IgG1 FES (L234F, L235E, P331S) and human Ig kappa constant domains; also called Hu3F8 VH5.1/VL5
B18: Hu1B5-H6/Hu1B5-L2 (antibody, human IgG1, V domains shown)
VH: B1 VH with A24T, Y32F, S54Y, H59Q, G66D, L97G
VL: B1 VL with Y94F
notes: as for B1
B19: Hu1B5-H1/Hu1B5-L3 (antibody, human IgG1, V domains shown)
VH: B2 VH with E1Q, Y32F, S54Y, H59Q, G66D, V72R, L97G
VL: B1 VL with R51L, Y94F
notes: as for B1
B20: Hu1B5-H6/Hu1B5-L3 (antibody, human IgG1, V domains shown)
VH: B1 VH with A24T, Y32F, S54Y, H59Q, G66D, L97G
VL: B1 VL with R51L, Y94F
notes: as for B1
B21: Hu1B5-H5/Hu1B5-L3 (antibody, human IgG1, V domains shown)
VH: B9 VH with N61A
VL: B1 VL with R51L, Y94F
notes: as for B1
B22: Hu1B5-H2/Hu1B5-L2 (antibody, human IgG1, V domains shown)
VH: B9 VH with I48M, A68V, L70M, K74T, S76T
VL: B1 VL with Y94F
notes: as for B1
B23: Hu1B5-H4/Hu1B5-L3 (antibody, human IgG1, V domains shown)
VH: B9 VH
VL: B1 VL with R51L, Y94F
notes: as for B1
B24: Hu1B5-H5/Hu1B5-L2 (antibody, human IgG1, V domains shown)
VH: B9 VH with N61A
VL: B1 VL with Y94F
notes: as for B1
B25: Hu1B5-H6/Hu1B5-L4 (antibody, human IgG1, V domains shown)
VH: B1 VH with A24T, Y32F, S54Y, H59Q, G66D, L97G
VL: B1 VL with L15P, Q17E, Q42L, R44K, R50Q, R51L, Y94F
notes: as for B1
B26: Hu1B5-H2/Hu1B5-L3 (antibody, human IgG1, V domains shown)
VH: B9 VH with I48M, A68V, L70M, K74T, S76T
VL: B1 VL with R51L, Y94F
notes: as for B1
B27: Hu1B5-H6/Hu1B5-L5 (antibody, human IgG1, V domains shown)
VH: B1 VH with A24T, Y32F, S54Y, H59Q, G66D, L97G
VL: DIVMTQSPDSLAVSLGERATINCRSSQSIVHSNGNTYLEWYQQKPGQPPKLLIYKVSNRFSGVPDRFSGSGSGTDFTLTISSLQAEDVAVYYCFQGSHVPLTFGGGTKVEIK
notes: as for B1

T1 sequence (P29274 whole entry): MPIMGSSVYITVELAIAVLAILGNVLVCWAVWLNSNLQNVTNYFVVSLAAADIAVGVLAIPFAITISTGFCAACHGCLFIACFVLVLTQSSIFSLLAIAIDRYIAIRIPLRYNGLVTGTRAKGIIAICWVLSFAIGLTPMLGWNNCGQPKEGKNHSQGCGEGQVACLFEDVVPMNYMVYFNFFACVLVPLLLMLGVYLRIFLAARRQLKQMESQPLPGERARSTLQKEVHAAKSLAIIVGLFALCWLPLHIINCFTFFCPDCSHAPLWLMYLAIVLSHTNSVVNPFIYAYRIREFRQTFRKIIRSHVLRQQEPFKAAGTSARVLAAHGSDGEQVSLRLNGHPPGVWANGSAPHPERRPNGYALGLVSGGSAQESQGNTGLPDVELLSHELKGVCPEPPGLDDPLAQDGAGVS
Sequence of human A2aR (P29274 whole entry): as above

The first test addresses T1, human adenosine A2A receptor (A2aR) (human, UniProt P29274 1-412).
T1 construct: Assays used HEK293 cells stably overexpressing human A2aR (BPS Bioscience 79381), human A2aR-expressing CHO cells, or endogenous A2aR on human PBMC; also called human A2aR; hA2aR
Kind of test: flow cytometry, HEK293-hA2aR cells, supernatant 1 ug/ml.
Conditions: not given
On to B1, for which the MFI was determined as 285 MFI.
Still for that read-out and setting: the value for B2 was 1780 MFI; that for B3 was 10 MFI.
Take B4: the MFI amounted to 1750 MFI.
In turn, B5 registered an MFI of 9 MFI.
For the molecule B6, the MFI worked out at 16 MFI.

Another test has as its target human A2aR (Homo sapiens, UniProt P29274). The experiment in a line: Binding of humanized anti-A2aR antibodies in transfected Expi293F cell supernatant to human A2aR on HEK293 cells (FACS, MFI). The following applies: supernatant normalized to 1 μg/ml antibody; HEK293 cells stably overexpressing human A2aR; greater MFI = stronger binding; parental value average of triplicate. The procedure:
Briefly, HEK293 cells that stably overexpress human A2aR (HEK-hA2aR OCL, BPS Bioscience, Cat. 79381) were collected from fresh culture. Cells were then resuspended in FACS buffer (1×DPBS/1% FBS) at 10^6/ml concentration. One hundred microliters (100 μl) of cells were aliquoted into each well of a 96 well plates. After centrifugation, cell pellets in each well were then resuspended with 100 μl normalized supernatant samples containing 1 μg/ml humanized anti-A2aR monoclonal antibody variants collected from transfected Expi293 cell culture. The supernatants were mixed with the cells and incubated on ice for 1 hours. After washing the mixtures of the supernatants containing expressed antibodies and the A2aR-expressing cells with FACS buffer, one hundred microliters (100 μl) of 1:400 diluted PE-conjugated anti-human Fc secondary antibody (Jackson Immuno Research, Cat. 109-116-098) was added to each well followed by an incubation for 30 minutes on ice. After washes with FACS buffer, stained cells were resuspended in 150 μl of 7-AAD (Biolegend, Cat. 420404) diluted 1:100 in 1×DPBS buffer and incubate for 5 minutes in the dark at room temperature before FACS analysis. The mean fluorescence intensity (MFI) was obtained using Guava 11HT or 5HT (Luminex). Data was analyzed using Flowjo software.
As shown in Tables 22-24, exemplary humanized anti-A2aR antibodies bind to A2aR expressed on a cell surface. A greater MFI value means stronger binding of the exemplary antibody to A2aR expressed on a cell surface.
B7: the “binding to human A2aR on cell surface, mean fluorescence intensity (MFI)” value (shortened to “binding to human A2aR on cell surface”) came to 152.
For B8, the “binding to human A2aR on cell surface” value was found to be 178.
B9: the “binding to human A2aR on cell surface” value is 182.
Consider B10, for which the “binding to human A2aR on cell surface” value was determined as 82.

A further test deals with T1, human adenosine A2A receptor (A2aR). Kind of test: flow cytometry titration, HEK293-hA2aR cells, purified antibody.
Conditions: not given
B11 displayed an EC50 of 0.76 nM.
For the molecule B12, the EC50 worked out at 0.53 nM.
Take B13: it took 0.68 nM to reach a half-maximal effect (EC50).
B14 showed an EC50 of 0.65 nM.
For B15, the concentration for a half-maximal effect (EC50) stood at 0.76 nM.
For the molecule B16, the EC50 is 0.62 nM.
In the case of B17, the EC50 was 0.69 nM.

The next test shares this target. Kind of test: flow cytometry, HEK293-hA2aR cells, supernatant 1 ug/ml.
Conditions: not given
The source holds these as a separate data set.
Take B18: the MFI stood at 359 MFI.
Turning to B19, the MFI amounted to 1840 MFI.
Consider B20, for which the MFI is 1910 MFI.
In turn, B21 showed an MFI of 1950 MFI.
B22 gave an MFI of 243 MFI.
On the same count and under the same terms, the same measure for B23: 1860 MFI; for B24: 283 MFI; for B25: 1910 MFI.
B26 returned an MFI of 1870 MFI.
Still for that read-out and setting: the value for B27 was 702 MFI.

Another test shares this target. The description is as above.
Conditions: not given
This is another data set of the same source.
Consider B11, for which the MFI turned out to be 1710 MFI.
On to B12, for which the MFI was 1790 MFI.
In turn, B13 gave an MFI of 1590 MFI.
B14 returned an MFI of 1830 MFI.
Same read-out and setting: the same measure for B15: 1830 MFI.
